Data reported in patent US20250179196A1 (Janssen / Centocor, published 2025).

Tests used:
[1] = target: T1, human IL-23R extracellular domain (ECD) protein (human, UniProt Q5VWK5 24-355); assay: column 'Affinity to hu IL-23R ECD' (summary of SPR data)
T1 construct: Recombinant ECD; also called hu IL-23R ECD
T1 sequence: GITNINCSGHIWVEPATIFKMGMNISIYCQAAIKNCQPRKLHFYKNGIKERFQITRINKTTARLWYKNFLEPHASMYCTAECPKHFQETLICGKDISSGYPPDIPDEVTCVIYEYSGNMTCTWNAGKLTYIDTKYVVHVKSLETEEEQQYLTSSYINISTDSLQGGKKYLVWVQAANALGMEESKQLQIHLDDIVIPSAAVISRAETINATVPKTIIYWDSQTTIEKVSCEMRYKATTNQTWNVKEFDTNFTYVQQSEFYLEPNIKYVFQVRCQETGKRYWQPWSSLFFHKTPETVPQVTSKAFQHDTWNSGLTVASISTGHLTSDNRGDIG

[2] = target: T2, human IL-23R expressed on the cell surface of stably transfected iLite and HEK cell lines (human, UniProt Q5VWK5 24-629); assay: flow cytometry on human IL-23R HEK cells, Expt E (11-point, 384well)
T2 construct: whole, on cells; Same receptor on two transfected cell lines; the cell line is named under assay; also called human IL-23R iLite cells; human IL-23R HEK cells
T2 sequence (looked up): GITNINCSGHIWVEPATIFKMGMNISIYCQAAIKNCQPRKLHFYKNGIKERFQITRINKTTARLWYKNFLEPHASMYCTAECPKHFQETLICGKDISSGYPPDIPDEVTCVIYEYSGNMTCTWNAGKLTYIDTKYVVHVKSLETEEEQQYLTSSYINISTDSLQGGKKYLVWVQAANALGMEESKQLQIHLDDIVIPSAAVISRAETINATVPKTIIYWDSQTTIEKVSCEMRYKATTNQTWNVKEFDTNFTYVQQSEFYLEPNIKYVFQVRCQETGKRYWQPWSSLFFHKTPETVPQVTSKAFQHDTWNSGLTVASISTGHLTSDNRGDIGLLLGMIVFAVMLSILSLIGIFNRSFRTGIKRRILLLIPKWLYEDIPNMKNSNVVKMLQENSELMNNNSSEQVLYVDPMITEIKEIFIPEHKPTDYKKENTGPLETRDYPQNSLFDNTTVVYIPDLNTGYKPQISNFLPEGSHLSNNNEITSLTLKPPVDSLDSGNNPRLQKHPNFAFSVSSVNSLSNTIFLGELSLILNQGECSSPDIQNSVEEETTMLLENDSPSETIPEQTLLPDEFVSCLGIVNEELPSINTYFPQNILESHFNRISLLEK
How it was run: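 Antibody bound to HEK-IL-23R cells 30 min at 37 °C over 11 concentrations; after washes, Sytox Green added and cells run on iQue. Geometric MFI of 647 detection antibody on single viable cells fitted by variable-slope dose–response.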

[3] = target: T2, human IL-23R expressed on the cell …; assay: flow cytometry on human IL-23R HEK cells, Expt D (8-point, 96well)
How it was run: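 Serially diluted IL-23R mAbs bound to mixed HEK-IL-23R and parental HEK cells for 30 min at 37 °C, in duplicate. After washes, 647 detection antibody geometric MFI measured on single viable (Sytox Green-negative) cells and fitted to a variable-slope dose-response against log mAb concentration.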

[4] = target: T2, human IL-23R expressed on the cell …; assay: flow cytometry on human IL-23R iLite cells, Expt A (1-point)
Experimental: Human IL-23R iLiTe cell single concentration mAb Binding. Anti-IL-23R mouse IgG₂ₐ mAbs derived from phage panning were tested for binding to human IL-23R expressing iLiTe cells, where a PE conjugated anti mouse secondary antibody detected mAbs bound to the receptor on the cells. […] The next day 100,000 cells were added to each well of a 96 well V bottom plate (Costar, Catalog #3357), centrifuged at 450× gravity for 2 minutes, and then supernatants were decanted. […] Antibodies diluted to 3 μg/mL in Stain Buffer (BSA) (BD Pharmagen, Catalog #554657) were added at 100 μL/well and incubated on ice for 50 minutes, then plates were centrifuged and supernatants were decanted. […] Cells were washed by adding 100 μL/well of Stain Buffer followed by centrifugation and decanting of the supernatants. Cells were resuspended in 100 μL/well of Stain Buffer and analyzed on the Becton Dickenson LSR II FACS instrument with HTS module. Data was analyzed using FlowJo software (Treestar) to obtain geometric mean fluorescence intensities.

[5] = target: T2, human IL-23R expressed on the cell …; assay: flow cytometry on human IL-23R HEK cells, Expt D (8-point, 96well); legend: N-No cell binding observed
Experimental: HEK-IL-23R cell concentration response mAb binding (8-point, 96-well assay). […] HEK-IL-23R and HEK-parental cells (12.5 μL of each, 120000 cells total) were plated in 2× replicate on 96-well V-bottom plates (Corning, Cat #3357) into 37° C. warmed Assay medium containing serially diluted IL-23R mAbs to a final volume of 150 μL. IL-23R mAbs were allowed to bind to cells for 30 minutes, at 37° C. […] Cells were next washed twice in ice-cold stain buffer, then resuspended in a final volume of 30 μL with Sytox Green viability dye (ThermoFisher, Cat #S7020). Plates were kept on ice until run for analysis on the iQue. All washes were performed by centrifugation (800 rcf, 3 minutes) followed by flick decantation to remove supernatants. Cell-binding to HEK-IL-23R cells was measured with FlowJo, by gating for single, viable cells and determining the geometric mean fluorescence intensity (MFI) for the 647 detection antibody. Geometric mean fluorescence intensities were plotted over log mAb concentrations fitted with a dose response curve with variable slope using GraphPad Prism.

B1: I23RB153 (antibody, mouse IgG2a, kappa, V domains shown)
VH: EVKLVESGGGLVQPGGSLKLSCAASGFTFSSDTMSWVRQTPEKRLELVAEISSNGGSTYHIDTVKGRFTISRDNAKNTLYLQMSSLKSEDTAMYYCASPGYPWFAYWGQGTTVTVSA
VL: DIVMTQSHRFMSTSVGERVSITCKASQDVGNAVAWYQQKPGQSPKLLIYWTSTRHNGVPDRFTGSGSGTDFTLTISNVQGEDLADYFCQQYNRYPLTFGSGTKLEIKR
notes: immunization; mouse IgG2a/kappa
- Kd [1]: 2 nM
- EC50 [2]: > 50 nM
- MFI (6.4 nM) [2]: 52800 MFI
- EC50 [3]: 4.4 nM

B2: I23RB6 (antibody, mouse IgG2a, kappa, V domains shown)
VH: QVQLVQSGAEVKKPGSSVKVSCKASGGTFSSYAISWVRQAPGQGLEWMGGIIPIFGTANYAQKFQGRVTITADESTSTAYMELSSLRSEDTAVYYCARGRYIRSYDYFDYWGQGTLVTVSS
VL: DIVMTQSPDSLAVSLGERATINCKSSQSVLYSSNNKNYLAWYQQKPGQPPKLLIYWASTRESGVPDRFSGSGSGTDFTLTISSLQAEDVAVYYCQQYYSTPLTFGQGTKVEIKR
notes: phage display; human V, mouse IgG2a/kappa
- MFI @ 20 nM [4]: 139 MFI

B3: I23RB328 (antibody, mouse IgG2a, kappa, V domains shown)
VH: QVQLVQSGAEVKKPGSSVKVSCKASGGTFSSYAISWVRQAPGQGLEWMGGIIPIFGTANYAQKFQGRVTITADESTSTAYMELSSLRSEDTAVYYCARGRYIRSYDYFDYWGQGTLVTVSS
VL: EIVLTQSPATLSLSPGERATLSCRASQSVSSYLAWYQQKPGQAPRLLIYDASNRATGVPARFSGSGTGTDFTLTISSLQPEDVAVYYCQQRNSTPLTFGQGTKVEIKR
notes: as for B2
- binding result [5]: no binding

B4: I23RB42 (antibody, mouse IgG2a, kappa, V domains shown)
VH: EVQLQQSGAELVKPGASVKISCKASGYSFTDYIMNWVKQSHGKSLEWIGNINPYFGFTSYNQEFKGKATLTVDKSSSTAYMLLNSLTSEDSAVYYCSRGSYYGYETFFDYWGQGTTLTVSS
VL: DIVLTQTAPSVPVTPGESVSISCRSSKSLLHSNGNTYLYWFLQRPGQSPQLLIYRMSNLASGVPDRFSGSGSGTAFTLRISRVEAEDVGVYYCMQHLEYPYTFGSGTRLEIKR
notes: as for B1
- Kd [1]: ≤ 0.1 nM
- EC50 [2]: 3.1 nM
- MFI (6.4 nM) [2]: 353000 MFI
- EC50 [3]: 0.2 nM

B5: I23RB332 (antibody, mouse IgG2a, kappa, V domains shown)
VH: QVQLQQPGAELVMPGASVKLSCKASGYTFTSYWMHWVKQRPGQGLEWIGEIDPSDSYTNYNQKFKGKSTLTVDKSSSTAYMQLSSLTSEDSAVYYCARSYAFDYWGQGTTVTVSS
VL: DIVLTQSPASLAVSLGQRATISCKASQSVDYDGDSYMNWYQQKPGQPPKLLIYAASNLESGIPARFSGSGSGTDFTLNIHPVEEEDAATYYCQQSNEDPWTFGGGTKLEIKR
notes: phage display; mouse V, mouse IgG2a/kappa
- binding result [5]: no binding

B6: I23RB56 (antibody, mouse IgG2a, kappa, V domains shown)
VH: EVKLVESGGGLVKPGGSLKLSCAASGFTFSSYAMSWVRQTPEKRLEWVAAINSNDGSTYYPDTVKDRFTISRDNAKNTLYLQMSSLRSEDTALYYCARHFLYFSNFYYFDYWGQGTTLTVSS
VL: DIVMTQSPKFLLVSAGDRVTITCKASQSVSNDVAWYQQKPGQSPKLLIYYASNRYTGVPDRFTGSGYGTVFTFTISTVQAEDLAVYFCQQDYSSPFTFGSGTKLEIKR
notes: as for B1
- Kd [1]: 26 to 68 nM
- EC50 [2]: > 50 nM
- MFI (6.4 nM) [2]: 118000 MFI
- EC50 [3]: 0.7 nM

B7: I23RB278 (antibody, mouse IgG2a, kappa, V domains shown)
VH: EVQLLESGGGLVQPGGSLRLSCAASGFTFSSYAMSWVRQAPGKGLEWVSAISGSGGSTYYADSVKGRFTISRDNSKNTLYLQMNSLRAEDTAVYYCVRGGSLGGGFYFDYWGQGTLVTVSS
VL: not shown
notes: as for B2
- binding result [5]: no binding

B8: I23RB104 (antibody, mouse IgG2a, kappa, V domains shown)
VH: EVKLVESGGGLVKPGGSLKLSCAASGFTFSSYAMSWVRQTPEKRLDWVASISTGGSTYYPDSVKGGFTISRDIARNTLSLQMTSLRSEDTAMYYCARGPHYYGGSYPFAYWGQGTTLTVSS
VL: DIQMTQSPASLSVSVGETVTITCRASENIYSNLAWYQQKQGKSPQLLVYAATNLADGVPSRFSGSGSGTQYSLKINSLQSEDFGSYYCQHFWGTPPTFGSGTKLEIKR
notes: as for B1
- binding result [5]: no binding

B9: I23RB85 (antibody, mouse IgG2a, kappa, V domains shown)
VH: DVQLQESGPGLVAPSQSLSITCTVSGFSFNTYAITWVRQPPGRGLEWLGVLWPGGGISYNLALKSRLTISRDSSKSQVFLEMNSLQTDDTARYYCARNWRHYDGSYAMDFWGQGTSVTVSS
VL: DIVLTQSPLSLFVSLGDQASISCRSSQSLVHSNGNTYLHWYLQKPGQSPKLLIYKVSNRFSGVPDRFSGSGSGTDFTLKISRVEAEDLGVYFCSQSTHVPWTFGGGTRLEIKR
notes: as for B1
- Kd [1]: 1 nM
- EC50 [2]: 13.5 nM
- MFI (6.4 nM) [2]: 64000 MFI
- EC50 [3]: ~0.6 nM

B10: I23RB45 (antibody, mouse IgG2a, kappa, V domains shown)
VH: QVTLKESGPGILQPSQTLSLTCSFSGFSLSTYGMGVSWIRQPSGKGLEWLAHIYWDDDKRYNPSLKSRLTISKDTSNNQVFLKITSVDTADTATYYCAQRALPLLGQKAPFDYWGQGTTLTVSS
VL: DIVLTQSQKFISTSVGDRVSITCKASQNVRTAVAWYQQKPGQSPKLLIYLPSNRHTGVPDRFTGSGSGTVFTLTISNVQSEDQADYFCLQHWNYPLTFGAGTKLELKR
notes: as for B1
- Kd [1]: 2 nM
- EC50 [2]: 4.5 nM
- MFI (6.4 nM) [2]: 228000 MFI
- EC50 [3]: 0.4 nM

B11: I23RB30 (antibody, mouse IgG2a, kappa, V domains shown)
VH: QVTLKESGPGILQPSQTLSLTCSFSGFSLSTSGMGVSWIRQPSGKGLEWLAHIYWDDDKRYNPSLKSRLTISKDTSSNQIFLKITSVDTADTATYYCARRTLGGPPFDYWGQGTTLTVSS
VL: DIVLTQSQRFMSTSVGDRVSITCKASQNIRTAVAWYQQKPGQSPKALIYLPSNRHTGVPDRFTGSGSGTDFTLTISNVQSEDLADYFCLQHWNYPLTFGAGTKLELKR
notes: as for B1
- Kd [1]: 36 to 46 nM
- EC50 [2]: 8.3 nM
- MFI (6.4 nM) [2]: 185000 MFI
- EC50 [3]: 1.2 nM

B12: I23RB9 (antibody, mouse IgG2a, kappa, V domains shown)
VH: QVQLVQSGAEVKKPGSSVKVSCKASGGTFSSYAISWVRQAPGQGLEWMGGIIPIFGTANYAQKFQGRVTITADESTSTAYMELSSLRSEDTAVYYCARDRSYSYGLSGLGYYGFDYWGQGTLVTVSS
VL: EIVLTQSPATLSLSPGERATLSCRASQSVSSYLAWYQQKPGQAPRLLIYDASNRATGIPARFSGSGSGTDFTLTISSLEPEDFAVYYCQQRSNWPLTFGQGTKVEIKR
notes: as for B2
- MFI @ 20 nM [4]: 86 MFI

B13: I23RB330 (antibody, mouse IgG2a, kappa, V domains shown)
VH: QVQLVQSGAEVKKPGSSVKVSCKASGGTFSSYAISWVRQAPGQGLEWMGGIIPIFGTANYAQKFQGRVTITADESTSTAYMELSSLRSEDTAVYYCARDRSYSYGLSGLGYYGFDYWGQGTLVTVSS
VL: EIVLTQSPATLSLSPGERATLSCRASQSVSSYLAWYQQKPGQAPRLLIYDASNRATGIPARFSGSGSGTDFTLTISSLEPEDFAVYYCQQRSNTPLTFGQGTKVEIKR
notes: as for B2
- binding result [5]: no binding
